Source: US20150351390A1, “COMPOSITIONS AND METHODS FOR AUXIN-ANALOG CONJUGATION” (PIONEER HI-BRED INTERNATIONAL, INC., priority 2012, published 2015)

How the values were obtained:
[1] = LC-MS assay of GH3 conjugation of 2,4-D with Asp or Glu; format: biochemical; conditions: 5 mM 2,4-D substrate; for kcat (hrs−1) 2,4-D-Asp: conjugation of 2,4-D with Asp by recombinant GH3 protein, 2,4-D-Asp product by LC-MS; for kcat (hrs−1) 2,4-D-Glu: conjugation of 2,4-D with Glu by recombinant GH3 protein, 2,4-D-Glu product by LC-MS
Outline: (§1)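 Rxn: 20 mM Tris-HCl pH 8.0, 5 mM MgCl2, 1 mM DTT, 5 mM ATP, 5 mM auxin, 5 mM Asp/Glu, 44–164 μg/mL purified His-GH3; 30° C., 3 h. MeOH quench, supernatant diluted 20×, LC-MS vs conjugate standards.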

[2] = LC-MS assay of GH3 conjugation of IAA with Asp or Glu; format: biochemical; conditions: for kcat (hrs−1) IAA-Asp: conjugation of IAA with Asp by recombinant GH3 protein, IAA-Asp product by LC-MS; for kcat (hrs−1) IAA-Glu: conjugation of IAA with Glu by recombinant GH3 protein, IAA-Glu product by LC-MS
Outline: as §1

Row | Molecule | kcat (hrs−1) 2,4-D-Asp [1] [h⁻¹] | kcat (hrs−1) 2,4-D-Glu [1] [h⁻¹] | kcat (hrs−1) IAA-Asp [2] [h⁻¹] | kcat (hrs−1) IAA-Glu [2] [h⁻¹]
1 | RcGH3-17: GH3 protein, accession XP_002531876 (protein, listed as Ricinus communis) MDGKKLEYKGEAALEEIEKLTEKADEVQESILREILIQNGQTEYLSKYIKGSKDVKEFKYCVPVTTYKDMYPYIQRIANGEDSSLITGRPITEMLCSSGTSAGEPKLMPSINEDLDRRTFIYNLVMPIMNQYISGLDEGKAMYLYFVKEEMSTPCGLPARTVLTSYYKSKHFKCRARDSFNDFTSPDQAILCKDSDQSMYCQLLSGLVYRHQVLRIGAVFASALLRAISFLERNWVHLCNDIRNGELDPMITDPECRSCMSMILSSPNPSLADEIEEICSRPSWKGILCLLWPRTKYIEAVVTGSMAQYVPSLKYYSERKLPLVCTMYASSECYFGVNLKPLSDPAEVSFTLMPNMCYFEFIPLGENGTLLMDVDEEEKVPIHKLVDLVHVRRGCYYELVVTTFAGLYRYRIGDVLQVTGFHNQAPQFRFICRRNVVLSIDNDKTNEEDLHKSISTAKKLLEPYNAILVEYTSYAETLVVPGHYVLYWEILHHSSVVNHNQTPLDAEVFQECCIAVEEELDYIYRRCRTHDKSIGPLEIRVVEPGTFEALMDLFIGQGGSINQYKTPRCIKSNAALMLLNSHVKASFFSARDPVWIP | 0.000 | 0.027 | 4.366 | 10.433
2 | SbEES08587: GH3 protein, accession EES08587 (protein, Sorghum bicolor) MSTSPAVLDHDHGHHRLLSSVSPPTTTTDSPATAMPPRAPSSLPPTIPACDPHDGPASLQLIEDLTTHAGAIQQRVLREILAMNAGTDYLRGFLGAGAEGRDADELAATFKDRVPVVEYEDVKPYIERIANGAPSSLISSKTITELLTSSGTSGGQPKLMPSTEEELDRKTFLYNLLVPVMNKYVEGLDKGRCMYLLFVKPEITTASGLVARPVLTSYYKSRHFRERPDSPYTRYTSPNEAILCPDSAQSMYAQLLCGLARRGEVLRVGAVFASAFLRAVKFLEAHWRALCDDIRAGRVDASRVTDAACRDAVARVVARPDPALADAIAAECEGSSSSSWRGIVRRLWPRTKYIDVIVTGSMAQYIPLLEFYGGGLPLVSTMYASSECYFGINLRPLDPPEDVAYTLLPNMCYYEFIKVEKDGEEAREDGKVVDLVDVEAGGYYELLVTTFTGLYRYRVGDILQVSGFHNAAPQFRFVHRRNVVLSVDTDKTSEDDLLRAVTAAKRLLAPLGGATILSEYTAYADTASIPGHYVLFWELTPTPPMPGDGDTAARVMAACCAEVEAGLDAVYQRCRSRDRSVGPLEIRVVSTGAFDALMDLCVSHGSSVNQYKTPRCIKHPDAIAVLEARVVGRFFSDTVPHWEPFNVVDTAAAGAAATTTPSLNEGAT | 0.044 | 0.554 | 10.251 | 389.161
3 | VvGH3-4: GH3 protein, accession XP_002263353 (protein, listed as Vitis vinifera) MEGKRLEYRGEEALKELEKFTAKADEVQENILKEIIARNCETEYLKKYMGGSKDVLEFKQSVPVITYKDIHPYIQRIANGEDSSLISGHPITEMLCSSGTSGGEPKMMPSIAEDLNRRTFLYNLIMPIMNQYIPGLDEGKAMFLYFVKAEMSTPCGLPARAVLTSYYKSKNFRCRVRDAFNDFTSPDQAILCTDSNQSMYCQLLAGLVHRHQVLRLGAVFASALLRAISFLERHWVHLCNDIRTGHLDSSITDPECRSSMSTILSSPNPHLADEIEEICSHPSWKGMLSQLWPRAKYIEAVITGSMAQYIPSLEYYSGGKLPLVCTMYASSECYFGVNMKPLCDPADVAFTLLPNMCYFEFIPLGENGTLLMDMDEEKGVPKEKLVDLVHVRLGCYYELVVTTFAGLNRYRIGDVLQVTGFHNRAPQFRFICRRNVVLSIDNDKTNEEDLHRSITMAKKLLEPYNALLVEYTSYADTSSLPGHYVLYWEITHCISTDSPSTPLDSKVLEECCIAVEEELDYIYRRCRTHDKSVGPLEIRLVQPGTFEDLMDLFISQGGSINQYKTPRCIKSSNALKLLNSNVEASFFSPRDPRWIP | 0.000 | 0.018 | 3.873 | 16.309
4 | VvGH3-6: GH3 protein, accession XP_002268278 (protein, listed as Vitis vinifera) MLLSCDPHDNEAGLMLLEDLTTNANQVQLEVLEEILTQNANTEYLRGYLDGHSDKGLFKKKVPIVNYEDIKPHIERIANGEPSRIISAQPITELLTSSGTSGGQPKLMPSTAEDLDRKTFFYNLLIPVMNKYVDGLDQGKGMYLLFIKPEISTPSGLMARPVLTSYYKSSNFRNRPFNPFNVYTSPDETILCLDSKQSMYCQLLCGLVQRDEVLRVGAVFASAFLRAIKFLEDHWRELCSNIRTGCVSDWITDPSCRNAVSSFLSKPQPDLADFIEFECNGESWEGIIKRLWPRTKYIEVIVTGSMAQYIPTLEFYSGGLPLVSTMYASSECYYGINLKPLSKPSDVSYTLLPNMAYFEFLPVQKNNGEVTQQVQCNGGCIKKEGERVEIEVVGLVDVKVGHYYELVVTTFTGLYRYRTGDILMVTGFYNNAPQFRFVQRRNVVLSIDTDKTNEEDLLKAVTQAKLLLEPYGFLLTEYTSYADTSSIPGHYVLFWELKTRGNNDLSEPDHTIMEQCCSTVEESLDSVYRRCRRRDNSIGPLEIRIVKPGTFDALMDFCVSQGSSVNQYKTPRCIKSKEAIKILDSRVVGKVFSKKVPFWEPFKMETK | 0.385 | 1.204 | 111.443 | 505.272
5 | OsGH3-6: GH3 protein, accession Q60EY1 (protein, listed as Oryza sativa) MAATAWGIRSSGIRGASPVMSACVSPAEVILGADHQQQMYCHLLCGLRRWDAVDCIRAPYAAALARALRLLQSKWRQLCDDLECGTVCADVVTDAAMRGAVQDGVLAGPCPELAGRVRRICERDDWRGVLRQLWPDARYISCVTTGTMEQYFPAIKHFAGEALPVLGTDYLASECAIGINLERTSPPEETTYVLLPRAAYFEFIPFDMDAAGRGAAAAEPVDIAGVEAGKTYELVATTFRGLYRYKVGDVVKIAGFHHSSPRLQFVTRAPPPQEHGEVLTERDVMAAMDTFQLMLKDGGEVIEFAAFIIDGDGGQRRRRCATIAVEVSNGSKLLDHERSAAFLRRCTAPLEGCLGGAYRLSRATGDVAPLEVAVVRPGTFDRLAEAAIRGGAPANQYKPPRSSGTGTSSMCCNPPWCAAAAQSLNQLLTSICLIVSLNQRQFLDRESNSGTDKVFISDSILNFQHWGGFSLRFDLQEESLTLYKDHPS | 0.000 | 0.000 | 0.000 | 0.000
6 | AIGH3-12 (protein, listed as Arabidopsis lyrata) MKPISDINESFEKQLKYLTSDVKQIQDNLLEEIITPNTKTEYLQRFLIGRFDKDLFKKNVPIVTYEDIKPYLDRVVNGESSDVISARPITGFLLSSGTSGGAQKMMPWNNKYLDNLTFIYDLRMQVITKHVKGVEEGKGMMFLFTKQESMTPSGLPARVATSSYFKSDYFKHRPSNWYYSYTSPDEVILCPNNTQSLYCHLLCGLVQRDEVVRTGSIFASVMVRAIEVLKNSWEELCSNIRSGHLSNWVTDLGCQSSVSLVLGGPRPELADTIEEICNQKSWKGIVKRLWPNTKYIETVVTGSMGQYVPMLNYYCNDLPLVSTTYGSSETTFGINLDPLCKPEDVSYTFMPNMSYFEFIPMDGDNNDVVDLEDVKLGCTYEPVVTNFAGLYRMRVGDIVLVTGFYNNAPQFKFVRRENVVLSIDSDKTNEEDLFKAVSQAKLVLESSGLDLKDFTSYADTSTFPGHYVVYLEVDTKEGEEKKTAQFELDEEALSMCCLVMEESLDNVYKRCRFKDGSIGPLEIRVVRQGTFISLMDFFISQGASTGQYKTPRCIKSGKALQVLETCVVAKFFSS | 0.006 | 0.057 | 0.000 | 12.925
7 | AIGH3-7 (protein, listed as Arabidopsis lyrata) VLEDLTSNVTQLQDNEILTLNANTNYLQSFFRGRFDKEIFKKNVPVVTYDDPSNVISAQPITGFVLSSGTSGGAQKMMPWNEKYLDSCMIFGCINVKNVEKGKAMMFYFTKLESITPSGLPARVASSSYLKSNYFKNRPSNWYYTYTSPDELTLCPDNKQNLYCHLLCGLVQRNEVTRMGSIFASVMKELWSNIRSGQLSEWITDIVANTIEKICNQKCWKGIVTRLWPKAKYIETIVTGSMVQYVPTLNYYSNDMLPLISTIYASSETQFGLNLNPMCKPEDVSYTFMPNVSYFEFIPVDGDKNNVVDLADVKLGCSYEAVVTNFRIRVGDILVVTGFHNKAPQFRFIRRDNVVLSIDLDKTNEDDLFKAVNRGKLTLDSSDLMLAMLISPLSRDKNKDKKSKKHIELKQETFSECCLLMEDSLDEVYKNCRFKEEWTFDSLMDFFISQGASIGQYKTPRCIKSAKALEVIEKMW | 0.000 | 0.000 | 0.000 | 0.000
8 | AtGH3-15: GH3 protein, accession CAB87144 (protein, listed as Arabidopsis thaliana) MLPKFDPTNQKACLSLLEDLTTNVKQIQDSVLEAILSRNAQTEYLRGFLNGQVDKQNFKKNVPVVTYEDIRSYIDRIANGEPSDLICDRPISVLLTSSGTSGGVPKLIPLTTEDLEQRISFSSLYAPLLYKHIDGLSEGKSLIFYFVTRESKTANGDSLQVSPHAITTCADTTQSMYCQLLCGLLERDNVARLGAPFASSFLKVIKFLEDHWPELCSNIRTGRLSDWITDATCTSGIGKFLTAPNPELASLIEQECSKTSWEAILKRLWPKAKCIESIITGTMAQYIPLLEFYSGGLPLTSSFYGSSECFMGVNFNPLCKPSDVSYTIIPCMGYFEFLEVEKDHQEAGHDPTEKPVVVDLVDVKIGHDYEPVVTTFSGLYRYRVGDVLRATGFYNNAPHFCFVGRQKVVLSIDMDKTYEDDLLKAVTNAKLLLEPHDLMLMDFTSRVDSSSFPGHYVIYWELGSKVKDAKFEPNRDVMEECCFTVEESLDAVYRKGRKNDKNIGPLEIKVVKPGAFDELMNFFLSRGSSVSQYKTPRSVTNEEALKILEANVISEFLSRKIPSWELHELHSGR | 0.000 | 0.000 | 0.000 | 0.000
